Results: paper PMC4353693

How the values were obtained:
[1] = molecular target: C-terminally CFP-tagged P1aABD (P1aABD-CFP); experiment: FRET or BRET
P1aABDΔ22 = experiment: ITC
[2] = molecular target: actin binding domain of plectin isoform 1a (P1aABD); experiment: ITC

FRET efficiency [1] | Kd (P1aABDΔ22) | KD calculated with the competitive binding model [2] | Kd [2] | apparent KD in the presence of β4Fn12 (displacement) [2] | Substance
19% |  |  |  |  | C-terminally yellow fluorescence protein (YFP)-tagged CaM (CaM-YFP) (from UniProt P0DP23 1-149) (natural protein)
 | 2.6 µM | 2.3 µM | 4.2 µM | 7.7 µM | calmodulin (CaM), full length, with Ca2+ (from UniProt P0DP23 1-149) (natural protein)
 |  |  | 10.5 µM |  | N-ter lobe of calmodulin (CaMNL) (from UniProt P0DP23 10-74) (domain or fragment)
